Assays:
C. elegans = C. elegans feeding bioassay; format: in vivo, Caenorhabditis elegans; conditions: cleaved peptides; concentrations based on Bradford (BSA standard), assume 100% cleavage of the MBP-Kistrin fusion
Method: A number of polypeptides were recombinantly expressed in E. coli and then screened in a nematode bioassay.
C. elegans feeding bioassays. Screening was performed in high throughput using E. coli expressed material, corresponding to the predicted mature regions of various small peptides. Expression of biologically functional polypeptides involved producing a fusion protein that included a maltose-binding protein (MBP) and a polypeptide of interest and subsequently cleaving the fusion protein at a protease recognition sequence to release the peptide of interest. DNA encoding the polypeptide of interest was fused to the C-terminus of the MelE gene in the E. coli expression vector pMAL (New England Biolabs; see, Guan et al., Gene 67:21-30 (1987); and Maina et al., Gene 74:365-73 (1988)). Sequences encoding the cleavage site of proteases Factor Xa or Genenase I were incorporated between the genes of MBP and the polypeptide of interest. A histidine tag was also added to the N-terminus of MBP.
The constructed plasmid vector was transformed into cells of E. coli XL-1 Blue and transformants were grown in 2YT medium containing 50 μg/mL carbenicillin to a cell density of OD600=0.6-0.9. Expression of the fusion protein was induced by addition of IPTG into the culture to a final concentration of 1 mM. Cells were grown for 4-16 hours to saturation before harvesting. Cells were harvested by centrifugation and then lysed with B-PER reagent (Pierce Chemicals, Rockford, Ill.) to obtain the fraction of soluble proteins. The fusion protein was purified from the cell lysate supernatant utilizing the histidine tag by incubating the cell lysate with Ni-NTA agarose resins for 20 minutes to 1 hour. The resins were washed with Tris buffer to remove all unbound proteins. Two-mercaptoethanol (10 mM) was included in the lysis and washing buffers to allow partial refolding of the proteins. Elution of the bound fusion protein was performed with buffer containing 20-40 mM […]. To release the polypeptide of interest, the purified fusion protein was incubated with Factor Xa or Genease I (RT, 8-24 hours). The cleaved protein sample was then used in nematode activity assays.
Hit characterization. Approximate IC50's (in μg/mL) for 4 hits determined from C. elegans bioassay using cleaved peptides. Concentrations were determined based on Bradford (BSA standard) and assume 100% cleavage of the MBP-Kistrin fusion.

Alternaria brassicicola = assay: Anti-fungal bioassay (primary screening); format: cell-based; parameters: key: 0 = no effect; 1 = partial growth inhibition; 2 = strong inhibition; conditions: protease-cleaved fusion protein samples, scored after 18 to 48 hours
Method: (§1) The same polypeptides of Example 1 which were recombinantly expressed in E. Coli were also screened in an anti-fungal bioassay against five selected fungal pathogens.
(§2) All fungal strains were grown and maintained on potato dextrose agar (PDA) plates, in a 30° C. incubator. These plates were kept in smaller secondary containers (per fungal strain), with moist paper towels to maintain high humidity. Spores were harvested in a quarter strength of potato dextrose broth (PDB) after about 2 weeks of growth, counted using a hemacytometer, and subsequently stored in small aliquots at −80° C.
(§3) The frozen spores were diluted to the working concentration (determined empirically for each fungal strain), in a quarter strength of PDB, and 50 μL (per well) were added to sterile, flat-bottomed 96-well assay plates. The assay plates were incubated in the humid boxes at room temperature for 5-7 hours to allow the spores to germinate. Serial dilutions of purified, protease-cleaved fusion protein samples were then added to the assay plates, in 50 μL volumes, for a final assay volume of 100 μL per well. The assay plates were allowed to incubate overnight, in a humid box, at 30° C. Antifungal activity was scored after 18 to 48 hours, depending upon the strain of fungus.

Botrytis cinerea = assay: Anti-fungal bioassay (primary screening); format: cell-based; parameters: key: 0 = no effect; 1 = partial growth inhibition; 2 = strong inhibition; conditions: protease-cleaved fusion protein samples, scored after 18 to 48 hours
Method: as §1, §2, §3

Fusarium oxysporum = assay: Anti-fungal bioassay (primary screening); format: cell-based; parameters: key: 0 = no effect; 1 = partial growth inhibition; 2 = strong inhibition; conditions: protease-cleaved fusion protein samples, scored after 18 to 48 hours
Method: as §1, §2, §3

Fusarium verticillioides = assay: Anti-fungal bioassay (primary screening); format: cell-based; parameters: key: 0 = no effect; 1 = partial growth inhibition; 2 = strong inhibition; conditions: protease-cleaved fusion protein samples, scored after 18 to 48 hours
Method: as §1, §2, §3

Verticillium dahliae = assay: Anti-fungal bioassay (primary screening); format: cell-based; parameters: key: 0 = no effect; 1 = partial growth inhibition; 2 = strong inhibition; conditions: protease-cleaved fusion protein samples, scored after 18 to 48 hours
Method: as §1, §2, §3

| Molecule | Approximate IC50 from C. elegans bioassay (C. elegans) [µg/mL] | Antifungal score, Alternaria brassicicola (Alternaria brassicicola) | Antifungal score, Botrytis cinerea (Botrytis cinerea) | Antifungal score, Fusarium oxysporum (Fusarium oxysporum) | Antifungal score, Fusarium verticillioides (Fusarium verticillioides) | Antifungal score, Verticillium dahliae (Verticillium dahliae) |
| --- | --- | --- | --- | --- | --- | --- |
| Kis2: Kistrin polypeptide of SEQ ID NO: 1 from Arabidopsis thaliana, predicted mature region, recombinantly expressed in E. coli as cleaved MBP fusion (protein, listed as Arabidopsis thaliana, PEPTIDE (0)...(0) Kis2 mature peptide) GKLKPQQCNSKCSFRCSATSHKKPCMFFCLKCCKKCLCVPPGTFGNKQTCPCYNNWKTKEGRPKCP | 15 | 0 | 0 | 0 | 0 | 0 |
| Kis5: Kistrin polypeptide of SEQ ID NO: 4 from Picea mariana (black spruce), predicted mature region, recombinantly expressed in E. coli as cleaved MBP fusion (protein, listed as Picea mariana, PEPTIDE (0)...(0) Kis5 mature peptide) GSLRPSECGQRCSYRCSATSHKKPCMFFCQKCCAKCLCVPPGTFGNKQVCPCYNNWKTQQGGPKCP | 75 | 0 | 0 | 1 | 0 | 2 |
| Kis10: Kistrin polypeptide of SEQ ID NO: 10 from Petunia x hybrida, predicted mature region, recombinantly expressed in E. coli as cleaved MBP fusion (protein, Petunia x hybrida; PEPTIDE (0)...(0) Kis10 mature peptide) GSLKPSQCLPQCTRRCSQTQYHNACMLFCQKCCNKCLCVPPGFYGNKGVCPCYNNWKTKEGGPKCP | 30 | 0 | 0 | 0 | 0 | 0 |
| Kis6: Kistrin polypeptide of SEQ ID NO: 7 from Arabidopsis thaliana, predicted mature region, recombinantly expressed in E. coli as cleaved MBP fusion (protein, listed as Arabidopsis thaliana, PEPTIDE (0)...(0) Kis6 mature peptide) GYAKKIDCGSACVARCRLSRRPRLCHRACGTCCYRCNCVPPGTYGNYDKCQCYASLTTHGGRRKCP | 150 | 0 | 0 | 0 | 0 | 1 |

From patent US7301069B2, “Methods of protecting plants from pathogenic fungi and nematodes” (Pioneer Hi-Bred International, Inc., priority 2004, dated 2007)
